Test results as given in patent publication US20200317768A1 (published 2020).
Where a chain is given by its changes, count along the chain named.

T1: cynomolgus monkey FcγRIIa1 extracellular domain with C-terminal His-tag (cynomolgus monkey)
T1 construct: also called cyno FcgRIIa1; cynoFcγRIIa1
T1 chain: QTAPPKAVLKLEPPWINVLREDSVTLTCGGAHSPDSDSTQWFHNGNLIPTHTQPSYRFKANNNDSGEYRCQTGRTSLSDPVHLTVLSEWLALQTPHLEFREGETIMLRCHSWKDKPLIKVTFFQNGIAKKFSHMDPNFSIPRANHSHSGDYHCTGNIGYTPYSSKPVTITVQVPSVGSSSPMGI

T2: cynomolgus monkey FcγRIIa2 extracellular domain with C-terminal His-tag (cynomolgus monkey)
T2 construct: also called cyno FcgRIIa2; cynoFcγRIIa2
T2 chain: T1 chain with P95T, T121A, I127K, A128S, K130N, D135N, R142Q

T3: cynomolgus monkey FcγRIIa3 extracellular domain with C-terminal His-tag (cynomolgus monkey)
T3 construct: also called cyno FcgRIIa3; cynoFcγRIIa3
T3 chain: T1 chain with P95T, T121A, A128S, H133P, D135N

T4: cynomolgus monkey FcγRIIb extracellular domain with C-terminal His-tag (cynomolgus monkey)
T4 construct: also called cyno FcgRIIb; cynoFcγRIIb
T4 chain: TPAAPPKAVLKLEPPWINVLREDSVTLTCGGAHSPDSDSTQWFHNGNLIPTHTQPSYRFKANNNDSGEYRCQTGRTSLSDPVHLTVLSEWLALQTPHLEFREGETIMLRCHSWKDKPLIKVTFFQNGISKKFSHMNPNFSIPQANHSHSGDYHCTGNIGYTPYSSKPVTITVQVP

T5: cynomolgus monkey FcγRIIIaS extracellular domain with C-terminal His-tag (cynomolgus monkey, UniProt Q8SPW2 21-206 at identity 1.00))
T5 construct: also called cyno FcgRIIIaS; cynoFcγRIIIaS
T5 chain: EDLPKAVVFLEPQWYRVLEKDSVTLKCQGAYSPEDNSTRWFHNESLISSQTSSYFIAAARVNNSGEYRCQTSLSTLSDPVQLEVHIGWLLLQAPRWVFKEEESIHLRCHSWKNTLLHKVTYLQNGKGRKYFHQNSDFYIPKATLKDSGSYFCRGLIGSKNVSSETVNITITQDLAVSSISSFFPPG

T6: human FcγRIIaH extracellular domain with C-terminal His-tag (human, UniProt P12318 34-217)
T6 construct: also called human FcgRIIaH; FcγRIIa (type H)
T6 sequence: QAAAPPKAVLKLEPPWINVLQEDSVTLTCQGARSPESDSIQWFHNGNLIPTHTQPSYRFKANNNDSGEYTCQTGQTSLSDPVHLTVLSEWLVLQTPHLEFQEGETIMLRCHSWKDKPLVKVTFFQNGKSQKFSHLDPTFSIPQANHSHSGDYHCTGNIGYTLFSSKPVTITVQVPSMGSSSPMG

T7: human FcγRIIb extracellular domain with C-terminal His-tag (human, UniProt P31994 43-217)
T7 construct: also called human FcgRIIb
T7 sequence: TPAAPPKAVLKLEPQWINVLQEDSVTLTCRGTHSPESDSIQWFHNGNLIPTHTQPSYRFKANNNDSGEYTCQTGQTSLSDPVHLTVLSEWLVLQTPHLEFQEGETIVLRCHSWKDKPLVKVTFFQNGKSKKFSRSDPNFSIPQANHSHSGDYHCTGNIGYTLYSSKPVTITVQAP

B1: M103205H795-MY516/M103202L889-SK1 (antibody, human IgG1, kappa)
heavy: QVTLKESGPVLVKPTETLTLTCTVSGIDLSHDDISWVRQAPGKGLEWVGIISYAGSTYYASWAKGRLTISKDTSKNQVVLTMTNMDPVDTATYYCARGVPAYSHGGDLWGQGTLVTVSSASTKGPSVFPLAPSSKSTSGGTAALGCLVKDYFPEPVTVSWNSGALTSGVHTFPAVLQSSGLYSLSSVVTVPSSSLGTQTYICNVNHKPSNTKVDKKVEPKSCDKTHTCPPCPAPELLTGPVVFLFPPKPKDTLMISRTPEVTCVVVDVSDEDPEVKFNWYVDGVEVHNAKTKPREELYNLTYRVVSVLTVLHQDWLNGKEYKCKVSNKALPKPIEKTISKAKGQPREPQVYTLPPSREEMTKNQVSLTCLVKGFYPSDIAVEWESNGQPENNYKTTPPVLDSDGSFFLYSKLTVDKSRWQQGNVFSCSVMHEALHNHYTQKSLSLSP
light: DIVMTQSPATLSLSPGERATLSCTSSQSVYHANWLSWFQQKPGQPPKLLIYWASTLAYGVPSRFSGSGSGTDFTLTISSLQPEDAATYYCAGGYGGGRYAFGQGTKVEIKRTVAAPSVFIFPPSDEQLKSGTASVVCLLNNFYPREAKVQWKVDNALQSGNSQESVTEQDSKDSTYSLSSTLTLSKADYEKHKVYACEVTHQGLSSPVTKSFNRGEC
notes: Substitutions introduced into M103205H795-SG1, expressed with M103202L889-SK1 as light chain; EU numbering
B2: M103205H795-MY523/M103202L889-SK1 (antibody, human IgG1, kappa)
heavy: B1 heavy with A233G, L300S
light: B1 light
notes: as for B1
B3: M103205H795-MY524/M103202L889-SK1 (antibody, human IgG1, kappa)
heavy: B1 heavy with A233G, V241S, L300S
light: B1 light
notes: as for B1
B4: M103205H795-MY532/M103202L889-SK1 (antibody, human IgG1, kappa)
heavy: B1 heavy with L236W, L297Q, L300S
light: B1 light
notes: as for B1
B5: M103205H795-MY528/M103202L889-SK1 (antibody, human IgG1, kappa)
heavy: B1 heavy with L236W, V241S, L297Q, L300S
light: B1 light
notes: as for B1
B6: M103205H795-MY525/M103202L889-SK1 (antibody, human IgG1, kappa)
heavy: B1 heavy with A233T, L297Q, L300S
light: B1 light
notes: as for B1
B7: M103205H795-MY522/M103202L889-SK1 (antibody, human IgG1, kappa)
heavy: B1 heavy with A233G, L297Q, L300S
light: B1 light
notes: as for B1
B8: M103205H795-MY530/M103202L889-SK1 (antibody, human IgG1, kappa)
heavy: B1 heavy with V241S, L297Q, L300S, K328T
light: B1 light
notes: as for B1
B9: M103205H795-MY529/M103202L889-SK1 (antibody, human IgG1, kappa)
heavy: B1 heavy with L236W, V241S, L300S
light: B1 light
notes: as for B1
B10: M103205H795-MY526/M103202L889-SK1 (antibody, human IgG1, kappa)
heavy: B1 heavy with A233T, L300S
light: B1 light
notes: as for B1
B11: M103205H795-MY531/M103202L889-SK1 (antibody, human IgG1, kappa)
heavy: B1 heavy with L236W, V241S, L297Q, L300S, K328T
light: B1 light
notes: as for B1
B12: M103205H795-MY520/M103202L889-SK1 (antibody, human IgG1, kappa)
heavy: B1 heavy with P234D, L300S
light: B1 light
notes: as for B1
B13: M103205H795-MY521/M103202L889-SK1 (antibody, human IgG1, kappa)
heavy: B1 heavy with P234D, V241S, L300S
light: B1 light
notes: as for B1
B14: M103205H795-MY527/M103202L889-SK1 (antibody, human IgG1, kappa)
heavy: B1 heavy with A233T, V241S, L300S
light: B1 light
notes: as for B1

Columns and labels:
Assay in all cases: SPR (BIACORE); KD of SG1 / KD of variant;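 further: relative to parent M103205H795-SG1 carrying the SG1 human heavy chain constant region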
[1] = molecular target: T1, cynomolgus monkey FcγRIIa1 …
[2] = molecular target: T2, cynomolgus monkey FcγRIIa2 …
[3] = molecular target: T3, cynomolgus monkey FcγRIIa3 …
[4] = molecular target: T4, cynomolgus monkey FcγRIIb extracellular …
[5] = molecular target: T5, cynomolgus monkey FcγRIIIaS …
[6] = molecular target: T6, human FcγRIIaH extracellular domain …
[7] = molecular target: T7, human FcγRIIb extracellular domain with …
[8] = molecular target: T8, human FcγRIIIaV extracellular domain with C-terminal His-tag (human, UniProt P08637 17-208)
T8 construct: also called human FcgRIIIaV
T8 sequence (P08637 17-208 F176V): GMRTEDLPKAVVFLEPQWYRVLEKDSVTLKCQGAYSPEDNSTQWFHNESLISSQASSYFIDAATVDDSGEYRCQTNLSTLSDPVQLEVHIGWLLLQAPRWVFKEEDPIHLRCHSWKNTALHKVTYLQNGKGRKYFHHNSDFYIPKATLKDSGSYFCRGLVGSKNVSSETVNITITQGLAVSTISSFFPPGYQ

Binder	KD fold (SG1 = 1) [1] [fold]	KD fold (SG1 = 1) [2] [fold]	KD fold (SG1 = 1) [3] [fold]	KD fold (SG1 = 1) [4] [fold]	KD fold (SG1 = 1) [5] [fold]	KD fold (SG1 = 1) [6] [fold]	KD fold (SG1 = 1) [7] [fold]	KD fold (SG1 = 1) [8] [fold]
B1	21.3	3.9	21.5	4	0.12	3.1	9	0.12
B2	2.3	3.9	15.5	3.8	0.17	3.6	4.2	0.15
B3	3.2	4.6	6.3	5.8	0.18	6.3	4.5	0.18
B4	4.2	8.5	23	7.8	0.42	3.3	5.5	0.43
B5	2.3	3.4	5.3	4.4	0.15	2	2.1	0.19
B6	2	4.6	15.5	3.5	0.26	3.3	3.8	0.19
B7	1.9	4.3	18.3	3.4	0.19	2.9	4.2	0.14
B8	2.3	4.6	6.8	5.6	0.42	4.1	2.5	0.23
B9	3.2	3.6	5.3	6	0.16	3	3.3	0.2
B10	2.5	4.3	13.1	3.9	0.23	4.1	3.8	0.19
B11	2.9	3.5	7.7	6.7	0.36	2.4	3.2	0.25
B12	1.3	2.2	8.3	1.5	0.18	1.4	3.5	0.29
B13	1.3	1.5	3.9	2.9	0.16	2.4	3.2	0.16
B14	2.9	3.5	5	5	0.24	6.3	3.5	0.18
